Experimental data: patent publication CN114395035A (JIANGSU MICKEE MEDICAL TECH CO LTD; INST OF MICROBIOLOGY OF …, dated 2022)

Molecular target: SARS-CoV-2 Prototype RBD蛋白 (野生型新型冠状病毒刺突蛋白受体结合域段RBD蛋白) (SARS-CoV-2, UniProt P0DTC2 319-541)
Assay: SPR (Biacore 8K)

Binder | Kd [nM]
IMCAS-364抗体 (全抗IgG1) (antibody, V domains shown, also called 金标抗体 (胶体金标记)) VH: QVQLQESGGGVVQPGRSLRLSCAASGFTFSRYGMHWVRQAPGKGLEWVAVIWYDGSNKYYADSVKGRFTISRDNSKNTLYLQMNSLRADDTAVYYCAKQEGTYCSGGSCYSGLDYWGQGTLVTVSS VL: not shown | 1.04
IMCAS-123抗体 (全抗IgG1) (antibody, V domains shown, also called T1线抗体) VH: not shown VL: DIQMTQSPSSVSASVGDSVTITCRASQGISRWLAWYQQRPGKAPKLLIYAAGNLETGVPSRFSGSGSGTDFTLTISDLQAEDFATYYCQQADSFPLTFGGGTKVDIKR | 0.18
